Results: US20210380703A1
Changes are numbered by the printed parent chain.

B1: 367_D03 (antibody, V domains shown)
VH: EVQLLESGGGLVQPGGSLRLSCAASGFTFDSYSMNWVRQAPGKGLEWVSSINYNGGYTGYADSVKGRFTISRDNSKNTLYLQMNSLRAEDTAVYYCARGANWHDTHLDYWGQGTLVTVSS
VL: DIQMTQSPSSLSASVGDRVTITCRASQSIITYLNWYQQKPGKAPKLLIYAATSRASGVPSRFSGSGSGTDFTLTISSLQPEDFATYYCQQSYDTPLTFGGGTKVEIK
B2: 369_D03 (antibody, V domains shown)
VH: B1 VH with D30S, S50G, G59S
VL: B1 VL with I30L, L47V, D93E, T94N
B3: 368_B09 (antibody, V domains shown)
VH: B1 VH with S33G, S50N, T58K
VL: B1 VL with I30L, T31S, A55H
B4: 367_D12 (antibody, V domains shown)
VH: B1 VH with D30S
VL: B1 VL with I30V, T31S, L33V, L47V, D93E, T94S
B5: 367_E05 (antibody, V domains shown)
VH: B1 VH with D30S, S33G, S49A, S50G, G59S
VL: B1 VL with I30L, T31S, A55H, T94S
B6: 370_B03 (antibody, V domains shown)
VH: B1 VH with D30S, S49A, S50N, H106A
VL: B1 VL with I30L, T31S, L47V, D93N, T94N
B7: 367_B09 (antibody, V domains shown)
VH: B1 VH with S33G, N35H, S49A, G59S, G99A, H106A
VL: B1 VL with I30L, T31S, L33V, L47V, D93E, T94N
B8: 369_A07 (antibody, V domains shown)
VH: B1 VH with D30S, S49A, S50G, T58K, H106A
VL: B1 VL with I30L, T31S, L47V, D93E, T94S
B9: 366_G06 (antibody, V domains shown)
VH: B1 VH with D30S, S33G, N35H, S49A, G99A
VL: B1 VL with I30V, T31S, L33V, L47V, T94N
B10: 370_B11 (antibody, V domains shown)
VH: B1 VH with S50G, G55S, G59S
VL: B1 VL with I30L, T31S, L47V, A55H, S91G, T94L
B11: 367_G04 (antibody, V domains shown)
VH: B1 VH with D30S, S49A, S50G, G55S, G59S
VL: B1 VL with I30L, T31S, L47V, T94S
B12: 367_D06 (antibody, V domains shown)
VH: B1 VH with S49A, S50G, G59S
VL: B1 VL with I30S, L47V, R54L, D93N, T94S
B13: 371_B03 (antibody, V domains shown)
VH: B1 VH with D30S, S33G, N35H, S49A, G59S
VL: B1 VL with I30L, T31S, L33V, A51T, T94N
B14: 368_A03 (antibody, V domains shown)
VH: B1 VH with D30S, S50G
VL: B1 VL with T31S, A51V, D93E, T94N
B15: 369_E06 (antibody, V domains shown)
VH: B1 VH with D30S, S33G, S50G, G59S, H106A
VL: B1 VL with T31S, L47V, A55H, T94S
B16: 370_A02 (antibody, V domains shown)
VH: B1 VH with S33G, S49A, S50G, H106A
VL: B1 VL with I30V, L47V, T94S
B17: 370_D05 (antibody, V domains shown)
VH: B1 VH with S31D, S50N, T58K, H106A
VL: B1 VL with L47V, A55H
B18: 367_H03 (antibody, V domains shown)
VH: B1 VH with D30S, S33G, S49A, S50G, G55S, G59S
VL: B1 VL with L33V, R54L, T94L
B19: 370_H02 (antibody, V domains shown)
VH: B1 VH with S50G, G55S, G59S
VL: B1 VL with I30L, D93E, T94S
B20: 369_B05 (antibody, V domains shown)
VH: B1 VH with S50G, T58K, G59S
VL: B1 VL with T31S, R54L
B21: 369_D09 (antibody, V domains shown)
VH: B1 VH with D30S, S31D, S33G, S50N, G59S, H106A
VL: B1 VL with I30L, T94S
B22: 369_C05 (antibody, V domains shown)
VH: B1 VH with S49A, S50G, G59S, H106A
VL: B1 VL with I30S, T31S, L33V, L47V, A51T, A55H, D93N, T94S
B23: 367_D08 (antibody, V domains shown)
VH: B1 VH with D30S, S31D, S49A, S50G, G59S
VL: B1 VL with I30L, T31S, L47V, A55H, Y92D, T94L
B24: 370_B12 (antibody, V domains shown)
VH: B1 VH with D30S, S31D, S50G, T58K, H106A
VL: B1 VL with I30L, T31S, L33V, L47V, A51T, D93E
B25: 368_H02 (antibody, V domains shown)
VH: B1 VH with D30S, S33G, S49A, S50G, G55S, G59S, H106A
VL: B1 VL with I30V, L47V, D93E, T94S
B26: 370_F03 (antibody, V domains shown)
VH: B1 VH with D30S, S33G, G55S, T58K, G59S, H106A
VL: B1 VL with I30L, T31S, L33V, D93E, T94N
B27: 368_A04 (antibody, V domains shown)
VH: B1 VH with S31D, S49A, S50G, T58K, G59S
VL: B1 VL with I30L, L47V, A51V, D93E, T94L
B28: 368_E12 (antibody, V domains shown)
VH: B1 VH with D30S, S31D, S33G, S49A, S50G, G59S
VL: B1 VL with I30V, T31S, L33V, L47V, A51V, T94S
B29: 368_F09 (antibody, V domains shown)
VH: B1 VH with D30S, S33G, S50G, G55S, G59S
VL: B1 VL with I30L, T52S, R54L, A55Q, D93E
B30: 368_H05 (antibody, V domains shown)
VH: B1 VH with D30S, S49A, S50N, T58K, G59S
VL: B1 VL with I30V, T31S, L33V, L47V, A51T, D93E, T94S
B31: 367_G01 (antibody, V domains shown)
VH: B1 VH with S33G, S49A, G55S
VL: B1 VL with I30S, T31S, L47V, T94L
B32: 369_D07 (antibody, V domains shown)
VH: B1 VH with D30S, S33G, S50G, T58K, G59S
VL: B1 VL with I30V, T31S, L47V, T94L
B33: 370_H07 (antibody, V domains shown)
VH: B1 VH with D30S, S49A, S50G, T58K, G59S, H106A
VL: B1 VL with I30L, T31S, R54L, Y92D, D93S, T94S
B34: 371_A10 (antibody, V domains shown)
VH: B1 VH with S31D, S50G, T58K, H106A
VL: B1 VL with I30V, T31S, L47V, D93E, T94N

These binders were tested against human Fc (human) (assay: ELISA, negative control).

Binder	optical density [OD]
B1	0.29
B2	0.391
B3	0.258
B4	0.309
B5	0.333
B6	0.3
B7	0.476
B8	0.288
B9	0.341
B10	0.326
B11	0.287
B12	0.283
B13	0.367
B14	0.348
B15	0.306
B16	0.425
B17	0.333

Binder	optical density [OD]
B18	0.377
B19	0.386
B20	0.314
B21	0.287
B22	0.32
B23	0.237
B24	0.478
B25	0.348
B26	0.373
B27	0.283
B28	0.347
B29	0.242
B30	0.277
B31	0.356
B32	0.363
B33	0.403
B34	0.338
